Results from US20240425606A1, “ANTI-IL-11RA ANTIBODIES” (Lassen Therapeutics 1, Inc., priority 2021, published 2024).
“Also recorded” adds a separate entry of the source.

How the values were obtained:
[1] = tested on: type VI collagen formation (PRO-C6) in fibrotic human PCLS; assay: Fibrotic human precision-cut lung slice (PCLS) model, PRO-C6 biomarker of ECM remodeling; format: cell-based; details: 48 hours
Protocol: Studies were performed to evaluate the effect of the mAb5 antibody on biomarkers reflecting ECM remodeling in a fibrotic human precision-cut lung slice (PCLS) model. The anti-fibrotic effect was investigated at three different concentrations in human ex vivo lung tissue slices prepared from pulmonary fibrosis patients.
Tissue slices were prepared from the subpleural and central region of the fibrotic lung from two human end-stage donors with pulmonary fibrosis (IPF and secondary fibrosis) (see, for example, Hess et al., Toxicol In Vitro. 32:347-61, 2016). For both donors, lung tissue samples from two different regional areas (subpleural and central) were used to generate tissue cores used for PCLS. Adjacent cores were used to achieve serial PCLS for the analysis of one treatment as compared to medium treated PCLS from the same cores. This enables the comparison of densely packed fibrotic areas with fibrotic foci with less affected areas. To ensure the fibrotic status, clinical/demographic information for each patient is provided.
Each treatment was tested with three replicates for each lung region and for each donor.
Preparation and incubation of precision-cut lung slices. Lung lobes were canuled and filled with 37° C. warm 2% low-melting agarose/medium solution. Filled lobes were cooled on ice to polymerise agarose. Tissue cores with a diameter of 8 mm were prepared and cut into approximately 300 μm thick slices using a microtome (Krumdieck tissue slicer, Alabama Research and Development, Muniford, AL, USA or Vibratome OTS-5000, Science Services GmbH, Munich) in Earle's Balanced Salts Solution (EBSS). Tissue slices were incubated in Dulbecco's modified Eagle's medium/nutrient mixture F-12 Ham (DMEM) with L-glutamine and 15 mM HEPES without phenol red. Tissue slices were transferred into petri dishes and washed with DMEM for 2 hours. Medium was changed four times every 30 minutes in order to remove cell debris.
Two PCLS per well were left over night in 500 μL DMEM in 24-well plates for a final washing step. Next day, PCLS were treated with experimental treatments or controls (see Table E5) in 250 μl DMEM/F-12 culture medium for 48 hours under normal cell culture conditions (37° C., 5% CO2). Medium contained 100 units/mL penicillin and 100 μg/mL streptomycin and was not supplemented with fetal calf serum.
After incubation for 48 hours, supernatants were collected, proteinase inhibitor cocktail (0.2%) was added and samples were frozen to −80° C. Additionally, the two PCLS from each well were transferred to a 2 mL safe-lock tube, snap-frozen in liquid nitrogen immediately, and stored at −80° C. Samples from the three replicates for each condition were not pooled.
Extracellular matrix remodeling evaluation. Biomarkers that reflect ECM remodeling were assessed in supernatant by Nordic Bioscience using the following competitive ELISA: PRO-C6 (C-terminal of type VI collagen C5 domain released as type VI collagen is incorporated into the matrix; measured on mesoscale platform [hsPRO-C6]): Reflects type VI collagen formation. Type VI collagen is a beaded filament collagen mainly found in the interface between the interstitial matrix and the basement membrane.
Statistics. […] Pooled data are presented as percentage of the “no treatment” control, calculated for individual regions and donors. Statistical significant differences were evaluated on pooled data by Kruskal-Wallis with Dunn's multiple comparisons test, comparing to the “no treatment” control. […]

[2] = biological target: T1, hIL-1 IR (Homo sapiens, UniProt Q14626); assay: Alternate biolayer interferometry assay (AHC biosensors) ranking mAbs 16-32 against mAb5; format: binding; details: for ka: association 120 s; for kd: dissociation 1200 s; for qualitative assessment: compared to mAb5
T1 sequence (Q14626 23-422): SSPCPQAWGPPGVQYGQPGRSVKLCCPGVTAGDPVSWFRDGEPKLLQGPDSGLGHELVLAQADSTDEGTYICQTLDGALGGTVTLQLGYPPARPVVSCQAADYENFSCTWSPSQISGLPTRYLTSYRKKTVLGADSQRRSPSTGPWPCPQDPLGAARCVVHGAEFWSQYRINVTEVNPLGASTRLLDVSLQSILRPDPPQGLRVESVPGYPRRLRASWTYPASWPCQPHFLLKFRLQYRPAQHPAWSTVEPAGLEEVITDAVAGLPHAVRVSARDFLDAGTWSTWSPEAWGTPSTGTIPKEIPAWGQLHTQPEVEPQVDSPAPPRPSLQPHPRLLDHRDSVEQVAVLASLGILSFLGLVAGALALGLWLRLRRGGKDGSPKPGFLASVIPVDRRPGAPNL
Description: A further series of antibodies were designed in which the residue at Kabat position 31 of the heavy chain was varied (mAbs 16-32). In this case an alternate biolayer interferometry assay was used to initially rank the antibodies compared to mAb5, the closest relative in sequence to mAbs 16-32. MAbs were loaded onto anti-human constant domain (AHC) biosensors (FortdBio) in 10× kinetics buffer consisting of PBS, 0.1% BSA, 0.02% Tween 20 for 120 s to achieve a spectral shift value of 0.8 to 1.2 nm. Association was carried out in the presence of 2-fold dilution series of hIL-1 IR and was allowed to proceed for 120 s. Dilution series started 10 nM. The dissociation in 10× kinetics buffer for 1200 s. Binding kinetic measurements were taken on an Octet RED96e instrument.

[3] = tested on: IL-11 signaling in STAT3 Reporter (Luciferase)—HEK293 cell line; assay: Cell-based STAT3 reporter (luciferase) assay for inhibiting IL-11 signaling; parameters: species or system human; details: compared with TS7 and 8E2
Protocol: Further testing of the lead mAbs was carried out using a cell-based reporter assay. IL-11 is reported to signal through the STAT3 and ERK pathways. Therefore, a STAT3 reporter cell line in which firefly luciferase gene expression is driven by STAT3 response elements located upstream of a minimal TATA promoter was selected to analyze mAb functional activity. In these cells, IL-11 can activate the endogenous STAT3 allowing it to bind to the STAT3 response elements, inducing transcription of the luciferase reporter gene and resulting in readily detectable luciferase expression. Antibodies to IL-11R which block IL-11 signaling should inhibit expression of IL-11 driven luciferase in these cells.
The STAT3 Reporter (Luciferase)—HEK293 cell line (BPS Bioscience, catalog #79800-P) was grown, passaged, and assayed as per manufacturer's protocols. Cells were added at 25,000 cells per well in a 96-well microtiter dish and incubated at 37° C. for 30-45 min. in 5% CO2 humidified air. Anti-IL-11R mAbs were added as a 3-fold dilution series in duplicate columns or rows, and plates were returned to the incubator for an additional 1 h at 37° C. after which 40 ng/mL IL-11 was added to each well to initiate the signal transduction cascade and luciferase production. Plates were incubated for 18-24 hours at 37° C. and luciferase was detected using a One-Step Luciferase Assay System (BPS Bioscience, cat. no. 60690-1) as per manufacturer's instructions.

[4] = biological target: T2, hIL-11Rα (Homo sapiens, UniProt Q14626); assay: Kinetic binding analysis by biolayer interferometry (protein G biosensors, Octet RED96e)
T2 sequence (Q14626 23-422): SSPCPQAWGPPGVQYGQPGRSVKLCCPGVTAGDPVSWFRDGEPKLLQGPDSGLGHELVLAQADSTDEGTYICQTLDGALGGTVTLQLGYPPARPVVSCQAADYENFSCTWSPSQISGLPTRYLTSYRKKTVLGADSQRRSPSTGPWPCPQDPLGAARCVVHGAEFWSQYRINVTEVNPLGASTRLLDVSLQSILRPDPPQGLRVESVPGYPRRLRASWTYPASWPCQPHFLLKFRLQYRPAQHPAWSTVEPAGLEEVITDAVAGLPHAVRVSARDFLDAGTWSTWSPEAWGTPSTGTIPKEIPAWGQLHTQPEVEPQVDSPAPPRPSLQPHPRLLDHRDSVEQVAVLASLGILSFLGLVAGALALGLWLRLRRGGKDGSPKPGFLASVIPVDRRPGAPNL
Protocol: Association was carried out in the presence of a 2-fold dilution series of hIL-11Rα and was allowed to proceed for 120 seconds; dissociation was measured for 300 to 1200 seconds.

[5] = biological target: T1, hIL-1 IR; assay: Alternate biolayer interferometry assay (AHC biosensors) ranking mAbs 16-32 against mAb5; format: binding; details: compared to mAb5

Molecule	effects on ECM remodeling ([1]; fibrotic human PCLS)	dose dependence of PRO-C6 reduction ([1]; mAb5 0.3, 3.0, 30 μg/mL)	median levels of PRO-C6 compared to the no treatment (media) control ([1]; pooled data all donors and regions, mAb5 0.3, 3.0, 30 μg/mL, nintedanib 1 μM, isotype control 30 μg/mL)	ka [2]	kd [2]	relative potency at inhibiting IL-11 signaling (in words) [3]	binding affinity (in words) ([4]; beyond the ability of the instrument to determine an accurate off-rate (kd))	ka ([4]; protein G biosensors, association 120 seconds)	kd ([4]; protein G biosensors, dissociation 300 to 1200 seconds)	qualitative assessment [2]	potency by more detailed kinetic measurements (in words) [5]
mAb5: anti-IL-11Rα antibody; VH SEQ ID NO: 201, VL SEQ ID NO: 202; human IgG4 (S228P), kappa light chain (antibody, V domains shown, human IgG4 S228P and kappa constant regions; mAb5 VH Chain; mAb5 VL Chain, anti-IL-11Rα antibody; human IgG4 (S228P), kappa light chain) VH: EVQLLESGGGLVQPGGSLRLSCAASGFTFSWYSMTWVRQAPGKGLEWVSSIVPYGDLTQYADSVKGRFTISRDNSKNTLYLQMNSLRAEDTAVYYCAKGPGWGSFDLWGRGTLVTVSS VL: DIQMTQSPSSLSASVGDRVTITCQASQDINNYLNWYQQKPGKAPKLLIYDASNLQTGVPSRFSGSGSGTDFTFTISSLQPEDIATYYCQQHESQSPTFGPGTKVDIK	better effects on ECM remodeling relative to the approved therapy nintedanib	dose-dependent manner; also recorded: dose-related reductions	decreased	490000 M⁻¹ s⁻¹	2.5e-05 s⁻¹	more potent at inhibiting IL-11 signaling than either of TS7 or 8E2	very high binding affinity	63700 M⁻¹ s⁻¹	<1e-07 s⁻¹	–	–
mAb31: anti-IL-11Rα antibody; VH SEQ ID NO: 253, VL SEQ ID NO: 254; heavy chain Kabat position 31 variant of mAb5 (antibody, V domains shown, mAb31 VH Chain; mAb31 VL Chain, anti-IL-11Rα antibody; heavy chain Kabat position 31 variant of mAb5) VH: EVQLLESGGGLVQPGGSLRLSCAASGFTFSVYSMTWVRQAPGKGLEWVSSIVPYGDLTQYADSVKGRFTISRDNSKNTLYLQMNSLRAEDTAVYYCAKGPGWGSFDLWGRGTLVTVSS VL: DIQMTQSPSSLSASVGDRVTITCQASQDINNYLNWYQQKPGKAPKLLIYDASNLQTGVPSRFSGSGSGTDFTFTISSLQPEDIATYYCQQHESQSPTFGPGTKVDIK	–	–	–	690000 M⁻¹ s⁻¹	off-scale	–	–	–	–	improved/	further improved potency
mAb29: anti-IL-11Rα antibody; VH SEQ ID NO: 249, VL SEQ ID NO: 250; heavy chain Kabat position 31 variant of mAb5 (antibody, V domains shown, mAb29 VH Chain; mAb29 VL Chain, anti-IL-11Rα antibody; heavy chain Kabat position 31 variant of mAb5) VH: EVQLLESGGGLVQPGGSLRLSCAASGFTFSSYSMTWVRQAPGKGLEWVSSIVPYGDLTQYADSVKGRFTISRDNSKNTLYLQMNSLRAEDTAVYYCAKGPGWGSFDLWGRGTLVTVSS VL: DIQMTQSPSSLSASVGDRVTITCQASQDINNYLNWYQQKPGKAPKLLIYDASNLQTGVPSRFSGSGSGTDFTFTISSLQPEDIATYYCQQHESQSPTFGPGTKVDIK	–	–	–	610000 M⁻¹ s⁻¹	1.8e-05 s⁻¹	–	–	–	–	improved/	further improved potency
mAb21: anti-IL-11Rα antibody; VH SEQ ID NO: 233, VL SEQ ID NO: 234; heavy chain Kabat position 31 variant of mAb5 (antibody, V domains shown, mAb21 VH Chain; mAb21 VL Chain, anti-IL-11Rα antibody; heavy chain Kabat position 31 variant of mAb5) VH: EVQLLESGGGLVQPGGSLRLSCAASGFTFSHYSMTWVRQAPGKGLEWVSSIVPYGDLTQYADSVKGRFTISRDNSKNTLYLQMNSLRAEDTAVYYCAKGPGWGSFDLWGRGTLVTVSS VL: DIQMTQSPSSLSASVGDRVTITCQASQDINNYLNWYQQKPGKAPKLLIYDASNLQTGVPSRFSGSGSGTDFTFTISSLQPEDIATYYCQQHESQSPTFGPGTKVDIK	–	–	–	750000 M⁻¹ s⁻¹	off-scale	–	–	–	–	improved/	further improved potency
mAb23: anti-IL-11Rα antibody; VH SEQ ID NO: 237, VL SEQ ID NO: 238; heavy chain Kabat position 31 variant of mAb5 (antibody, V domains shown, mAb23 VH Chain; mAb23 VL Chain, anti-IL-11Rα antibody; heavy chain Kabat position 31 variant of mAb5) VH: EVQLLESGGGLVQPGGSLRLSCAASGFTFSKYSMTWVRQAPGKGLEWVSSIVPYGDLTQYADSVKGRFTISRDNSKNTLYLQMNSLRAEDTAVYYCAKGPGWGSFDLWGRGTLVTVSS VL: DIQMTQSPSSLSASVGDRVTITCQASQDINNYLNWYQQKPGKAPKLLIYDASNLQTGVPSRFSGSGSGTDFTFTISSLQPEDIATYYCQQHESQSPTFGPGTKVDIK	–	–	–	720000 M⁻¹ s⁻¹	off-scale	–	–	–	–	improved/	further improved potency
